{"source": "paper PMC5596636", "about": "(ACS chemical neuroscience, 2016)", "origin": "cited, not measured here", "conditions_in_all_cases": "cloned mouse receptors; cited from earlier work", "key": {"mMC1R": {"target": "mMC1R (Mus musculus, UniProt Q01727)", "sequence (Q01727 whole entry)": "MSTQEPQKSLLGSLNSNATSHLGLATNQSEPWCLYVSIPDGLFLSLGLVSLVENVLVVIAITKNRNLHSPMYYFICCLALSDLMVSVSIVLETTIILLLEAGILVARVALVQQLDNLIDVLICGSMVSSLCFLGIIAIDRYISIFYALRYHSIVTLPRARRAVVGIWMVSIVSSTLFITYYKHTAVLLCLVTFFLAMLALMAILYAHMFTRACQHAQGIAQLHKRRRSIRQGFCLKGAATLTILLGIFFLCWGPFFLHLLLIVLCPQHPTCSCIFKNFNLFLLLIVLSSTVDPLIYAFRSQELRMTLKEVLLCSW"}, "mMC3R": {"target": "mMC3R (Mus musculus, UniProt P33033)", "sequence (P33033 whole entry)": "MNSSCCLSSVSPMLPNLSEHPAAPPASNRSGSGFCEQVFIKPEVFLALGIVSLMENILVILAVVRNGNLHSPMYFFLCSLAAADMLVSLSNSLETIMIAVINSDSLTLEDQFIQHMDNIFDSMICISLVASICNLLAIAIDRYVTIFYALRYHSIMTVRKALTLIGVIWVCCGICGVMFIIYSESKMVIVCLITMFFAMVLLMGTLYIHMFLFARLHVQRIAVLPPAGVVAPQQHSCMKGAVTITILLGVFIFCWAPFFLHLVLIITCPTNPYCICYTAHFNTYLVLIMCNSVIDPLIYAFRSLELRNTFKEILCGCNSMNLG"}, "mMC5R": {"target": "mMC5R (Mus musculus, UniProt P41149)", "sequence (P41149 whole entry)": "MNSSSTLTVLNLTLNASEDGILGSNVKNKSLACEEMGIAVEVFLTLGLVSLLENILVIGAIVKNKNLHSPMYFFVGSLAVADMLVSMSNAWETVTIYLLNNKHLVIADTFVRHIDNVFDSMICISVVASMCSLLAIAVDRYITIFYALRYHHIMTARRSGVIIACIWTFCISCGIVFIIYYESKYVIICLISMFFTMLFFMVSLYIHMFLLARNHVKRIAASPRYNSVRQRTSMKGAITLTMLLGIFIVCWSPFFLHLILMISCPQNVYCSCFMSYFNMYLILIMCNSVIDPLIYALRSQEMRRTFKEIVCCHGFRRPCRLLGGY"}, "mMC4R": {"target": "mMC4R (Mus musculus, UniProt P56450)", "sequence (P56450 whole entry)": "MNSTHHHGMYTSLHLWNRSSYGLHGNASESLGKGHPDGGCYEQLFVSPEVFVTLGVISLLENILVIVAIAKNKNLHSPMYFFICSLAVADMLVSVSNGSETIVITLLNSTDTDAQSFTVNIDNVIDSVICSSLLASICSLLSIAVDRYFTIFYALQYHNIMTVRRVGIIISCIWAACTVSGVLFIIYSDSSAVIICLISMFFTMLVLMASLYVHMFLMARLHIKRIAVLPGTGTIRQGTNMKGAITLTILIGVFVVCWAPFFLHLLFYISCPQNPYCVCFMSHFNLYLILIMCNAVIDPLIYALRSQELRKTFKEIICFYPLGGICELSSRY"}}, "data": [{"substance": "Ac-His-Phe-Arg-Trp-NH2", "values": [{"measurement": "agonist potency at the mMC1R", "setting": "mMC1R", "value": "micromolar potency"}, {"measurement": "agonist potency at the mMC3R", "setting": "mMC3R", "value": "micromolar potency"}, {"measurement": "agonist potency at the mMC5R", "setting": "mMC5R", "value": "sub-micromolar potency"}, {"measurement": "agonist potency at the mMC4R", "setting": "mMC4R", "value": "micromolar potency"}]}]}
